Drawing on US12195506B2, “Immunotherapy with A*01 restricted peptides and combination of peptides against cancers and related methods” (Immatics Biotechnologies GmbH, priority 2018, dated 2025), this text covers Peptide exchange for 72 substances.

This experiment concerns the target HLA-A*01:01 (Homo sapiens, UniProt P04439, A114D/A174V/A182V/D101N/D185E/E176A/E190D/L180R/Q94H/R68K/S129P/T187R/V100A/V91M/W191G). Briefly: MHC binding assay: UV-ligand exchange, ELISA of stabilized MHC complexes (peptide exchange yield). Particulars: binding to HLA-A*01:01, UV-ligand exchange. Summed up: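 Peptide–MHC complexes were formed by UV-induced exchange of a photocleavable ligand for the test peptide. Exchange yield was measured by streptavidin-capture ELISA of 100-fold diluted complexes, detected with HRP anti-β2m at A450. Refolded HLA-A*02:01/MLA-001 monomers at 15-500 ng/ml served as standards.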
In general terms: In an ELISA, binding on a coated surface is turned into a signal by an enzyme label.
As to “295 (GQRLDEAMISY; listed as Homo sapiens) [compound 295]”, the Peptide exchange entry is on record as “+++ (>50 = +++)”.
The value for “296 (HMLAAMAY; listed as Homo sapiens) [compound 296]” was “++ (>20% = ++)”; that for “297 (RLDEAMISY; listed as Homo sapiens) [compound 297]” was “+++ (>50 = +++)”.
In the case of “298 (KFDVINHYF; listed as Homo sapiens) [compound 298]” it was “++ (>20% = ++)”; in that of “299 (EVDSVALSL; listed as Homo sapiens) [compound 299]”, “++ (>20% = ++)”.
The value for “300 (VSINPNSGDIY; listed as Homo sapiens) [compound 300]” was “+++ (>50 = +++)”.
For “301 (ESQTCASDY; listed as Homo sapiens) [compound 301]”, the Peptide exchange entry is given as “+++ (>50 = +++)”.
Take “302 (FYLSTPENYHY; listed as Homo sapiens) [compound 302]”: the Peptide exchange result was “+++ (>50 = +++)”.
In the case of “303 (GFGGLSSQGVYY; listed as Homo sapiens) [compound 303]” it was “+++ (>50 = +++)”; in that of “304 (FSENLIYTYI; listed as Homo sapiens) [compound 304]”, “++ (>20% = ++)”; in that of “305 (YADLLIYTY; listed as Homo sapiens) [compound 305]”, “++++ (>75% = ++++)”.
In the case of “306 (KSFETTVRY; listed as Homo sapiens) [compound 306]” it was “++ (>20% = ++)”; in that of “307 (DTDDRELRY; listed as Homo sapiens) [compound 307]”, “+++ (>50 = +++)”; in that of “308 (ELAAGQVVY; listed as Homo sapiens) [compound 308]”, “+ (>10% =+)”.
The value for “309 (EVDRNLIQY; listed as Homo sapiens) [compound 309]” was “+++ (>50 = +++)”.
As for “310 (KAFQELGVRY; listed as Homo sapiens) [compound 310]”, the Peptide exchange entry was “++ (>20% = ++)”.
The value for “311 (TVTDGTHTDFY; listed as Homo sapiens) [compound 311]” was “++ (>20% = ++)”; that for “312 (VTDGINPLI; listed as Homo sapiens) [compound 312]” was “++ (>20% = ++)”; that for “313 (VTDGTHTDFY; listed as Homo sapiens) [compound 313]” was “+++ (>50 = +++)”.
The value for “314 (PPEANSLQGALY; listed as Homo sapiens) [compound 314]” was “++ (>20% = ++)”; that for “315 (VLKIELETY; listed as Homo sapiens) [compound 315]” was “+++ (>50 = +++)”; that for “316 (YTCEECGQAF; listed as Homo sapiens) [compound 316]” was “++ (>20% = ++)”.
In the case of “317 (EDLLEVLDMY; listed as Homo sapiens) [compound 317]”, the Peptide exchange result is given as “++ (>20% = ++)”.
“318 (YMTSMALNY; listed as Homo sapiens) [compound 318]”: the Peptide exchange result is on record as “+++ (>50 = +++)”.
In the case of “319 (FTDPHIITF; listed as Homo sapiens) [compound 319]” it was “++++ (>75% = ++++)”.
The value for “320 (QALQDKLQTFY; listed as Homo sapiens) [compound 320]” was “++ (>20% = ++)”; that for “321 (DGIADASNLSYY; listed as Homo sapiens) [compound 321]” was “++ (>20% = ++)”; that for “322 (FSELNPLALY; listed as Homo sapiens) [compound 322]” was “++++ (>75% = ++++)”.
The value for “323 (KTLQKPVLPLY; listed as Homo sapiens) [compound 323]” was “++ (>20% = ++)”; that for “324 (RTGIFPYRF; listed as Homo sapiens) [compound 324]” was “++ (>20% = ++)”; that for “325 (LQKPVLPLY; listed as Homo sapiens) [compound 325]” was “++ (>20% = ++)”.
“326 (STSRLTLFS; listed as Homo sapiens) [compound 326]”: the Peptide exchange entry is “++ (>20% = ++)”.
The value for “327 (IMLSVDQHLY; listed as Homo sapiens) [compound 327]” was “+++ (>50 = +++)”; that for “328 (LLDEDNNIKL; listed as Homo sapiens) [compound 328]” was “++ (>20% = ++)”; that for “329 (NTDSMTLNNTAY; listed as Homo sapiens) [compound 329]” was “++++ (>75% = ++++)”.
In the case of “330 (EGELSEGEHWY; listed as Homo sapiens) [compound 330]” it was “+++ (>50 = +++)”.
In the case of “331 (YLYQAPGSLALY; listed as Homo sapiens) [compound 331]” it was “++++ (>75% = ++++)”; in that of “333 (LSDPQAELQFY; listed as Homo sapiens) [compound 333]”, “++++ (>75% = ++++)”; in that of “334 (PSSMPECLSY; listed as Homo sapiens) [compound 334]”, “++++ (>75% = ++++)”.
Turning to “335 (PSSMPECLSYY; listed as Homo sapiens) [compound 335]”, the Peptide exchange result is reported as “+++ (>50 = +++)”.
For the substance “336 (ATNIQLNIDTY; listed as Homo sapiens) [compound 336]”, the Peptide exchange result is listed as “+++ (>50 = +++)”.
On to “337 (FTESNQYNIY; listed as Homo sapiens) [compound 337]”, for which the Peptide exchange result was “++++ (>75% = ++++)”.
In the case of “338 (YSPDSFNVSW; listed as Homo sapiens) [compound 338]”, the Peptide exchange entry is reported as “++ (>20% = ++)”.
The value for “339 (ESMDIFPLGW; listed as Homo sapiens) [compound 339]” was “++ (>20% = ++)”.
Consider “340 (SVDSNLVAY; listed as Homo sapiens) [compound 340]”, for which the Peptide exchange entry was “+++ (>50 = +++)”.
In the case of “341 (PANYLGKMTY; listed as Homo sapiens) [compound 341]” it was “+++ (>50 = +++)”; in that of “342 (QTYMDGLLHY; listed as Homo sapiens) [compound 342]”, “++++ (>75% = ++++)”; in that of “343 (YFGNYFTYY; listed as Homo sapiens) [compound 343]”, “+ (>10% =+)”.
The value for “344 (AVNALQSVY; listed as Homo sapiens) [compound 344]” was “++ (>20% = ++)”; that for “345 (NTMDAVPRIDHY; listed as Homo sapiens) [compound 345]” was “++++ (>75% = ++++)”; that for “346 (VAGLEAGVLY; listed as Homo sapiens) [compound 346]” was “++ (>20% = ++)”.
In the case of “347 (SADHPGLTF; listed as Homo sapiens) [compound 347]” it was “++ (>20% = ++)”; in that of “348 (DSTDGCLLSF; listed as Homo sapiens) [compound 348]”, “++ (>20% = ++)”; in that of “349 (HLLSVSLYY; listed as Homo sapiens) [compound 349]”, “+ (>10% =+)”.
Regarding “350 (LTDPQVSYV; listed as Homo sapiens) [compound 350]”, the Peptide exchange entry is on record as “+++ (>50 = +++)”.
In the case of “351 (VLDPMLDFY; listed as Homo sapiens) [compound 351]” it was “++++ (>75% = ++++)”; in that of “352 (YPVVVAESMY; listed as Homo sapiens) [compound 352]”, “++ (>20% = ++)”; in that of “353 (RLNGSVASY; listed as Homo sapiens) [compound 353]”, “++ (>20% = ++)”.
In the case of “354 (EIIRYIFAY; listed as Homo sapiens) [compound 354]” it was “++ (>20% = ++)”.
“355 (MADRGEARL; listed as Homo sapiens) [compound 355]”: the Peptide exchange entry was “++ (>20% = ++)”.
In the case of “356 (NSENHILKY; listed as Homo sapiens) [compound 356]” it was “++++ (>75% = ++++)”; in that of “357 (MSPDIALLYL; listed as Homo sapiens) [compound 357]”, “+++ (>50 = +++)”.
In the case of “358 (YMSPDIALLY; listed as Homo sapiens) [compound 358]” it was “++++ (>75% = ++++)”; in that of “359 (NKEINYFMY; listed as Homo sapiens) [compound 359]”, “+++ (>50 = +++)”.
The value for “360 (RFDDINQEF; listed as Homo sapiens) [compound 360]” was “+ (>10% =+)”; that for “361 (FTAEEGQLY; listed as Homo sapiens) [compound 361]” was “+++ (>50 = +++)”.
For the substance “362 (SGALDEAAAY; listed as Homo sapiens) [compound 362]”, the Peptide exchange entry was “++ (>20% = ++)”.
Take “363 (LTDRDVSFY; listed as Homo sapiens) [compound 363]”: the Peptide exchange entry was “++++ (>75% = ++++)”.
In the case of “364 (DTGYLQLYY; listed as Homo sapiens) [compound 364]” it was “++++ (>75% = ++++)”; in that of “365 (FVDTKVPEH; listed as Homo sapiens) [compound 365]”, “++ (>20% = ++)”; in that of “366 (ITVDVRDEF; listed as Homo sapiens) [compound 366]”, “+ (>10% =+)”.
In the case of “367 (LTDTGYLQLY; listed as Homo sapiens) [compound 367]” it was “++++ (>75% = ++++)”.
